Tests used:
[1] = biological target: T1, DnaD L22A (Bacillus subtilis 168CA, UniProt P39787 1-232, L22A); assay: fluorescence polarisation; FP: 10 mM HEPES-KOH pH 7.5, 1 mM Mg acetate, 100 mM K glutamate, 20 C, 10 min, 1.875 nM DNA; crosslinking buffer not in material; conditions: protein: recombinant; tags: His14-SUMO tag cleaved; label: fluorescein
T1 sequence: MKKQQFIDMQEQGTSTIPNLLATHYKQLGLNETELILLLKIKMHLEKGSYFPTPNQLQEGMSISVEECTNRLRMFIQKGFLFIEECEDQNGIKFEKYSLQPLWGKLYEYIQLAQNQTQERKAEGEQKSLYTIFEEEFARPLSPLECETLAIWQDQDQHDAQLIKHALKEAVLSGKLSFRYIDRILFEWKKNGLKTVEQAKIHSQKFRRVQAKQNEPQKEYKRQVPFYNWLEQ

[2] = biological target: T2, DnaD F6A (Bacillus subtilis 168CA, UniProt P39787 1-232, F6A); assay: fluorescence polarisation; similar to WT; FP: 10 mM HEPES-KOH pH 7.5, 1 mM Mg acetate, 100 mM K glutamate, 20 C, 10 min, 1.875 nM DNA; crosslinking buffer not in material; conditions: protein: recombinant; tags: His14-SUMO tag cleaved; chain copies: 2; label: fluorescein
T2 sequence: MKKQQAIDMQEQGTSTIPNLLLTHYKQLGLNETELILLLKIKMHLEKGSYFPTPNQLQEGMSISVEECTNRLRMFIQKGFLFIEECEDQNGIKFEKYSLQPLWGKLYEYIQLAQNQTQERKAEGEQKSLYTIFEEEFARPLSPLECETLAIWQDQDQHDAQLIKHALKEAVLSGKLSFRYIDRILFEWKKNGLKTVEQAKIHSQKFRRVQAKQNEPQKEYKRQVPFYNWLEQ

[3] = biological target: the molecule itself; assay: SEC-MALS; purified DnaD variants; 20°C; 40 mM Tris-HCl pH 8, 500 mM NaCl, 1 mM EDTA, 20 mM imidazole, 2.5% v/v glycerol
[4] = biological target: the molecule itself; assay: SEC; Superdex 200 Increase 10/300GL, 4°C; 40 mM Tris-HCl pH 8, 500 mM NaCl, 1 mM EDTA, 20 mM imidazole

B1: polyT18 (oCW1088) (ssDNA)
DNA: TTTTTTTTTTTTTTTTTT
binding result [1]: no binding | binding result [2]: binds

B2: polyT40 (oCW837) (ssDNA)
DNA: TTTTTTTTTTTTTTTTTTTTTTTTTTTTTTTTTTTTTTTT
binding result [1]: no binding

B3: DnaD (wild-type, Bacillus subtilis DNA replication initiation protein) (natural protein, UniProt P39787 1-232, looked up)
chain: MKKQQFIDMQEQGTSTIPNLLLTHYKQLGLNETELILLLKIKMHLEKGSYFPTPNQLQEGMSISVEECTNRLRMFIQKGFLFIEECEDQNGIKFEKYSLQPLWGKLYEYIQLAQNQTQERKAEGEQKSLYTIFEEEFARPLSPLECETLAIWQDQDQHDAQLIKHALKEAVLSGKLSFRYIDRILFEWKKNGLKTVEQAKIHSQKFRRVQAKQNEPQKEYKRQVPFYNWLEQ
notes: DnaD, Bacillus subtilis 168CA, amplified from genomic DNA; full-length protein; Tetramer by SEC-MALS and SEC; in the cryo-EM map only a dimer was seen; also called wild-type DnaD; full length DnaD; source: E. coli BL21(DE3)-pLysS, purified (HisTrap, SUMO protease digestion, reverse HisTrap)
stoichiometry N [3]: 4

B4: DnaD^1-224 (truncation lacking the DnaB interaction region, the last eight residues) (domain or fragment, Bacillus subtilis, UniProt P39787 1-224, looked up)
chain: MKKQQFIDMQEQGTSTIPNLLLTHYKQLGLNETELILLLKIKMHLEKGSYFPTPNQLQEGMSISVEECTNRLRMFIQKGFLFIEECEDQNGIKFEKYSLQPLWGKLYEYIQLAQNQTQERKAEGEQKSLYTIFEEEFARPLSPLECETLAIWQDQDQHDAQLIKHALKEAVLSGKLSFRYIDRILFEWKKNGLKTVEQAKIHSQKFRRVQAKQNEPQKEYKRQV
notes: DnaD, Bacillus subtilis 168CA, residues 1-224 (lacks the last eight amino acid residues of the C-terminal tail); also called C-terminal truncation; source: E. coli BL21(DE3)-pLysS, purified (HisTrap, SUMO protease digestion, reverse HisTrap)
stoichiometry N [4]: 4

B5: DnaD^1-205 (truncation lacking the entire C-terminal tail) (domain or fragment, Bacillus subtilis, UniProt P39787 1-205, looked up)
chain: MKKQQFIDMQEQGTSTIPNLLLTHYKQLGLNETELILLLKIKMHLEKGSYFPTPNQLQEGMSISVEECTNRLRMFIQKGFLFIEECEDQNGIKFEKYSLQPLWGKLYEYIQLAQNQTQERKAEGEQKSLYTIFEEEFARPLSPLECETLAIWQDQDQHDAQLIKHALKEAVLSGKLSFRYIDRILFEWKKNGLKTVEQAKIHSQK
notes: DnaD, Bacillus subtilis 168CA, residues 1-205 (entire C-terminal tail removed); also called truncation of the DnaD^CTT; source: E. coli BL21(DE3)-pLysS, purified (HisTrap, SUMO protease digestion, reverse HisTrap)
stoichiometry N [3]: 4

From article doi:10.1101/2022.04.18.488654, “The DNA replication initiation protein DnaD is recruited to a specific strand of the Bacillus subtilis chromosome origin” (bioRxiv, 2022)
